Read-outs that look alike come from different tables or passages of the source.
Columns and labels:
Insulin [1] = test: ELISA, plate coated with insulin 5 ug/mL, test article at 100 nM, anti-human Fc-HRP detection
Insulin [2] = test: as above; remark: listed apart in the source

Insulin polyreactivity score (Insulin [1]) | Insulin polyreactivity score (Insulin [2]) | Substance
1.4 | 2.2 | Elotuzumab (antibody)
40 | 18 | Lenzilumab (antibody)

Source: patent US20240262905A1
